The source of these data is patent US20190248902A1 (published 2019).

Assay [1] has as its target T1, recombinant, soluble human ASGR-1 (human, UniProt P07306 62-291).
T1 construct: biotinylated in the binning assay; also called soluble huASGR-1; Soluble ASGR-1 (Amgen)
T1 sequence: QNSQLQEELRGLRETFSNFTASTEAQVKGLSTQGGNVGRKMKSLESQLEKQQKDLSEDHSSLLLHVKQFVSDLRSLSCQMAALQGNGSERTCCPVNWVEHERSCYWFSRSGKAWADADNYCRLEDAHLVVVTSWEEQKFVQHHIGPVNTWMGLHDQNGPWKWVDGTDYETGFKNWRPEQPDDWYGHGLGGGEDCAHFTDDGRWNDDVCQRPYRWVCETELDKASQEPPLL
The assay can be described thus: Octet BLI dissociation, pH 5.6 plus calcium. In outline:
(§1)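 Antibodies were captured on anti-human Fc biosensors, and soluble ASGR-1 (6 ug/ml) was associated for 2 min in Tris buffer containing 1 mM CaCl2 at pH 7.4, followed by 10 min dissociation under each test condition. The signal at the end of association was set as 100%. Percent ASGR-1 still bound after 1 min of dissociation was compared with the pH 7.4 plus calcium control, and >10% extra dissociation was scored as sensitive.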

Assay [2] deals with T1, recombinant, soluble human ASGR-1. Description: Octet BLI dissociation, pH 5.6 minus calcium. Summed up:
as §1

Assay [3] has the same target. Description: Octet BLI dissociation, pH 7.4 minus calcium. In outline:
as §1
In general terms: Biolayer interferometry detects binding as a change in optical thickness at a sensor tip.

B1: 192C8 (antibody, V domains shown)
VH: QVQLVESGGGVVQPGRSLRLSCAASGFTFSSYGMHWVRQAPGKGLEWVAVIWYDGSNEHYADSVKGRFMISRDNSKNTLYLQMNSLRAEDTAVYYCARDRGVGYYGMDVWGQGTTVTVSS
VL: DIQMTQSPSSLSASVGDRVTITCRASQGISNYLAWFQQKPGKAPKSLIYAASSLQSGVPSKFSGSGSGTDFTLTISSLQPEDFATYYCQHYLTYPLTFGGGTKVEIK
notes: hybridoma mAb
B1: the “% Change Compared to pH 7.4 + Calcium” value in assay [1] was -14%; in assay [2], -14%; in assay [3], -9%.

B2: 190F12 (antibody, V domains shown)
VH: QVQLVESGGGVVQPGRSLRLSCAASGFTFRNYGMHWVRQAPGKGLEWVAVIWFDGSNDYYADSVKGRFTISRDNSKNTLSLQMNSLRAEDTAVYYCARDRSVGYDGLDVWGQGTTVTVSS
VL: DIQMTQSPSSLSASVGDRVTITCRASQGIGKYLAWFQQKPGKAPKSLIYAASSLQSGVPSKFSGSGSGTDFTLTISSLQPDDFATYYCQRYDTYPFTFGPGTKVDIK
notes: hybridoma mAb
For the molecule B2, the “% Change Compared to pH 7.4 + Calcium” value is -6% in assay [1], -6% in assay [2] and -1% in assay [3].

B3: 198G3 (antibody, V domains shown)
VH: QVQLVESGGGVVQPGRSLKLSCAASGFTFSTYGMHWVRQAPGKGLEWVAVIWYDGTNKNYADSVKGRFTISRDNSKNTLCLQMNSLRAEDTAVYYCARDQGVGYDGLDVWGQGTTVTVSS
VL: DIQMAQSPSSLSASVGDRVTITCRTSQGIGKYLAWFQQKPGKAPKSLLYKASSLQGGVPSKFSGSGSGTDFTLTISSLQPEDFATYYCQQYMTYPLTFGGGTKVEIK
notes: hybridoma mAb
With B3, the “% Change Compared to pH 7.4 + Calcium” value in assay [1] was -4%; in assay [2], -4%; in assay [3], -1%.

B4: 194C1 (antibody, V domains shown)
VH: QVQLVESGGGVVQPGRSLRLSCAASGFTFSSYGMHWVRQAPGKGLEWVAVIWYDGSNEHYADSVKGRFTISRDNSKNTLYLQMNSLRAEDTAVYYCARNRGVGYYGLDVWGQGTTVTVSS
VL: DIQMTQSPSSLSASVGDRVTITCRASQGISNYLAWFQQKPGKAPKSLIYAASSLQSGVPSKFSGSGSGTDFTLTISSLQPEDFATYYCLHYLTYPLTFGGGTKVEIK
notes: hybridoma mAb
With B4, the “% Change Compared to pH 7.4 + Calcium” value in assay [1] was -12%; in assay [2] it was -8%; in assay [3], -7%.

B5: 192G8 (antibody, V domains shown)
VH: QVQLVESGGGVVQPGRSLRLSCAASGFTFSSYGMHWVRQAPGKGLEWVAVIWYDGSNKNYADSVKGRFTISRDNSKNTLYLQMNSLRAEDTAVYYCARDQGVGYDGLDVWGQGTTVTVSS
VL: DIQMTQSPSSLSASVGDRVTITCRTSQGIGNYLAWFQQKPGKAPKSLLYKASSLQSGVPSKFSGSGSGTDFTLTISSLQPEDFATYYCQQYITYPLTFGGGTKVEIK
notes: hybridoma mAb
With B5, the “% Change Compared to pH 7.4 + Calcium” value is -5% in assay [1], -6% in assay [2] and -1% in assay [3].

B6: 197E11 (antibody, V domains shown)
VH: QVQLVESGGGVVQPGRSLRLSCAASGFTFRNYGMHWVRQAPGKGLEWVAVIWFDGSNDYYADSVKGRFTISRDNSKNTLSLQMNSLRAEDTAVYYCARDRSVGYDGLDVWGQGTTVTVSS
VL: DIQMTQSPSSLSASVGDRVTITCRASQGINKYLSWFQQKPGKAPKSLIYAASSVQSGVPSKFSGSGSGTDFTLTISRLQPDDFATYYGQRYDTYPFTFGPGTKVDIK
notes: hybridoma mAb
As to B6, the “% Change Compared to pH 7.4 + Calcium” value in assay [1] is -5%; in assay [2], -4%; in assay [3], -1%.

B7: 192H10 (antibody, V domains shown)
VH: QVQLVESGGGVVQPGRSLRLSCAASGFTFSSYGMHWVRQAPGKGLEWVAVIWYDGSNKNYADSVKGRFTISRDNSKNTLYLQMNSLRAEDTAMYYCARDQGVGYDGLDVWGQGTSVTVSS
VL: DIQMTQSPSSLSASVGDRVTITCRASQGIGKYLAWFQQKPGKAPKSLIYAASSLQSGVPSKFSGSGYGTDFTLTISSLQPENFATYYCQQYSTYPLTFGGGTKVEIK
notes: hybridoma mAb
For B7, the “% Change Compared to pH 7.4 + Calcium” value was -5% in assay [1], -4% in assay [2] and 0% in assay [3].

B8: 197B6 (antibody, V domains shown)
VH: QVQLVESGGGVVQPGRSLRLSCAASGFTFSSYGMHWVRQAPGKGLEWVAVIWYDGSNKNYADSVKGRFTISRDNSKNMLYLQMNSLRAEDTAMYYCARDQGVGYDGLDVWGQGTSVTVSS
VL: DIQMTQSPSSLSASVGDRVTITCRASQGIGKYLAWFQQKPGKAPKSLIYGASSLQSGVPSKFSGSGSGTDFTLTISSLQPENFATYYCQQYSTYPLTFGGGTKVEIK
notes: hybridoma mAb
Turning to B8, the “% Change Compared to pH 7.4 + Calcium” value is -8% in assay [1], -7% in assay [2] and -1% in assay [3].

B9: 190H9 (antibody, V domains shown)
VH: QVQLVESGGGVVQPGRSLRLSCAASGFTFRNYGMHWVRQAPGKGLEWVAVIWFDGSNDYYADSVKGRFTISRDNSKNTLSLQMNSLRAEDTAVYYCARDRSVGYDGLDVWGQGTTVTVSS
VL: DIQMTQSPSSLSASVGDRVTITCRASQGIGKYLAWFQQKPGKALKSLIYAASSLQSGVPSKFSGSGSGTDFTLTISSLQPDDFATYYCQRYDTYPFTFGPGTKVDIK
notes: hybridoma mAb
For the molecule B9, the “% Change Compared to pH 7.4 + Calcium” value in assay [1] was -6%; in assay [2], -7%; in assay [3], -1%.

B10: 192G6 (antibody, V domains shown)
VH: QVQLVESGGGVVQPGRSLRLSCAASGFTFSSYGMHWVRQAPGKGLEWVAVLWYDGTNKNYADSVKGRFTISRDNSKNTLYLQMNSLRAEDTAVYYCARDQGVGYDGLDVWGQGTTVTVSS
VL: DIKMTQSPSSLSASVGDRVTITCRTSQGIGNYLAWFQQKPGKAPKSLLYKASSLQSGVPSKFSGSGSGTDFTLTISSLQPEDFATYYCQQYMTYPLTFGGGTKVEIK
notes: hybridoma mAb
For the molecule B10, the “% Change Compared to pH 7.4 + Calcium” value in assay [1] was -6%; in assay [2], -6%; in assay [3], -1%.

B11: 192C10 (antibody, V domains shown)
VH: QVQLVESGGGVVQPGRSLRLSCASSGFTFRNYGMHWVRQAPGKGLKWVAVIWFDGSNDYYADSVKGRFTISRDNSKNTLSLQMNSLRAEDTAVYYCARDRSVGYDGLDVWGQGTTVTVSS
VL: DIQMTQSPSSLSASVGDRVTITCRASQGIGKYLAWFQQKPGKAPKSLIYAASSLQSGVPSKFSGSGSGTDFTLTISSLQPDDFATYYCQRYDTYPFTFGPGTKVDFK
notes: hybridoma mAb
For the molecule B11, the “% Change Compared to pH 7.4 + Calcium” value was -6% in assay [1], -6% in assay [2] and -1% in assay [3].

B12: 196C7 (antibody, V domains shown)
VH: QVQLVESGGGVVQPGRSLRLSCAASGFTFSSYGMHWVRQAPGKGLEWVAVIWYDGSNEHYADSVKGRFTISRDNSKNTLYLQMNSLRAEDTAVYYCARDRGVGYYGLDVWGQGTTVTVSS
VL: DIQMTQSPSSLSASVGDRVTITCRANQAISNYLAWFQQKPGKAPKSLIYAASSLQSGVPSKFSGSGSGTDFTLTISSLQPEDFATYYCQHYLTYPLTFGGGTKVEIK
notes: hybridoma mAb
With B12, the figures for the “% Change Compared to pH 7.4 + Calcium” value in assay [1], in assay [2] and in assay [3] were -12%, -12% and -8%, respectively.

B13: 204G6 (antibody, V domains shown)
VH: QVQLVESGGGVVQPGRSLRLSCTASGFTFSSYGMHWVRQAPGKGLEWVAVIWYDGSNKNYADSVKGRFTISRDNSKNTLYLQMNSLRAEDTAVYYCARDRGVGYDGMDVWGQGTTVTVSS
VL: DIRMTQSPSSLSASVGDRITITCRTSQGIGNYLAWFQQKPGKAPKSLIYAASSLQSGVPSRFSGSGSGTDFTLTISSLQPEDFATYYCQHYLSYPLTFGGGTKVEIK
notes: hybridoma mAb
In the case of B13, the “% Change Compared to pH 7.4 + Calcium” value in assay [1] is -11%; in assay [2], -10%; in assay [3] it was -5%.

B14: 197F2 (antibody, V domains shown)
VH: QVQLVESGGGVVQPGRSLRLSCAASGFTFSSYGMHWVRQAPGKGLEWVAVIWYDGSNKNYADSVKGRFTISRDNSKNTLYLQMNSLRAEDTAVYYCARDQGVGYDGLDVWGQGTTVTVSS
VL: DIQMIQSPSSLSASVGDRVTITCRTSQGIGNYLAWFQQKPGKAPKSLLYKTSSLQSGVPSKFSGSGSGTDFTLTISSLQPEDFATYYFQQYITYPLTFGGGTKVEIK
notes: hybridoma mAb
Take B14: the figures for the “% Change Compared to pH 7.4 + Calcium” value in assay [1], in assay [2] and in assay [3] were -6%, -6% and 0%, respectively.

B15: 193C7 (antibody, V domains shown)
VH: QVQLVESGGGVVQPGRSLRLSCAASGFTFSSYGMHWVRQAPGKGLEWVAVIWYDGSNKNYADSVKGRFTISRDNSKNTLYLQMNSLRAEDTAMYYCARDQGVGYDGLDVWGQGTSVTVSS
VL: DIQMTQSPSSLSASVGDRVTITCRASQGIGKYLAWFQQKPGKAPKSLIYAASSLQSGVPSKFSGSGSGTDFTLTISSLQPEDFATYYCQQYSTYPLTFGGGTKVEIK
notes: hybridoma mAb
On to B15, for which the “% Change Compared to pH 7.4 + Calcium” value in assay [1] is -8%; in assay [2], -8%; in assay [3], -1%.
